The Human Domainome abundance scans (Beltran et al. 2025)
± gives the uncertainty stated by the source.

B1: Androgen receptor, residues 557 to 632; numbered along this chain, P10275 (parent)
chain: QKTCLICGDEASGCHYGALTCGSCKVFFKRAAEGKQKYLCASRNDCTIDKFRRKNCPSCRLRKCYEAGMTLGARKL

Variants of: B1
Assay: abundance fitness (aPCA) (normalised: wild type 0, dead -1); higher = more abundant; growth selection in yeast, the domain comes from the species named
Conditions: Homo sapiens

Variant	abundance fitness
QKTCLICGDEASGCHYGALTCGSCKEFFKRAAEGKQKYLCASRNDCTIDKFRRKNCPSCRLRKCYEAGMTLGARKL	0.014 ± 0.071
QKTCLICGDEASGCHYGALTCGSCKRFFKRAAEGKQKYLCASRNDCTIDKFRRKNCPSCRLRKCYEAGMTLGARKL	0.019 ± 0.026
QKTCLICGDEASGCHYGALTCGSCKAFFKRAAEGKQKYLCASRNDCTIDKFRRKNCPSCRLRKCYEAGMTLGARKL	-0.108 ± 0.12
QKTCLICGDEASGCHYGALTCGSCKQFFKRAAEGKQKYLCASRNDCTIDKFRRKNCPSCRLRKCYEAGMTLGARKL	0.007 ± 0.05
QKTCLICGDEASGCHYGALTCGSCKSFFKRAAEGKQKYLCASRNDCTIDKFRRKNCPSCRLRKCYEAGMTLGARKL	0.038 ± 0.035
QKTCLICGDEASGCHYGALTCGSCKNFFKRAAEGKQKYLCASRNDCTIDKFRRKNCPSCRLRKCYEAGMTLGARKL	0.069 ± 0.05
QKTCLICGDEASGCHYGALTCGSCKGFFKRAAEGKQKYLCASRNDCTIDKFRRKNCPSCRLRKCYEAGMTLGARKL	-0.001 ± 0.046
QKTCLICGDEASGCHYGALTCGSCKDFFKRAAEGKQKYLCASRNDCTIDKFRRKNCPSCRLRKCYEAGMTLGARKL	0.043 ± 0.077
QKTCLICGDEASGCHYGALTCGSCKCFFKRAAEGKQKYLCASRNDCTIDKFRRKNCPSCRLRKCYEAGMTLGARKL	-0.012 ± 0.058
QKTCLICGDEASGCHYGALTCGSCKWFFKRAAEGKQKYLCASRNDCTIDKFRRKNCPSCRLRKCYEAGMTLGARKL	-0.181 ± 0.037
QKTCLICGDEASGCHYGALTCGSCKFFFKRAAEGKQKYLCASRNDCTIDKFRRKNCPSCRLRKCYEAGMTLGARKL	-0.13 ± 0.058
QKTCLICGDEASGCHYGALTCGSCKPFFKRAAEGKQKYLCASRNDCTIDKFRRKNCPSCRLRKCYEAGMTLGARKL	-0.772 ± 0.13
QKTCLICGDEASGCHYGALTCGSCKLFFKRAAEGKQKYLCASRNDCTIDKFRRKNCPSCRLRKCYEAGMTLGARKL	0.008 ± 0.033
QKTCLICGDEASGCHYGALTCGSCKIFFKRAAEGKQKYLCASRNDCTIDKFRRKNCPSCRLRKCYEAGMTLGARKL	0.013 ± 0.051
QKTCLICGDEASGCHYGALTCGSCKHFFKRAAEGKQKYLCASRNDCTIDKFRRKNCPSCRLRKCYEAGMTLGARKL	0.039 ± 0.071
QKTCLICGDEASGCHYGALTCGSCKTFFKRAAEGKQKYLCASRNDCTIDKFRRKNCPSCRLRKCYEAGMTLGARKL	-0.002 ± 0.04
QKTCLICGDEASGCHYGALTCGSCKKFFKRAAEGKQKYLCASRNDCTIDKFRRKNCPSCRLRKCYEAGMTLGARKL	0.058 ± 0.037
QKTCLICGDEASGCHYGALTCGSCKMFFKRAAEGKQKYLCASRNDCTIDKFRRKNCPSCRLRKCYEAGMTLGARKL	0.053 ± 0.042
QKTCLICGDEASGCHYGALTCGSCKVLFKRAAEGKQKYLCASRNDCTIDKFRRKNCPSCRLRKCYEAGMTLGARKL	-0.766 ± 0.058
QKTCLICGDEASGCHYGALTCGSCKVKFKRAAEGKQKYLCASRNDCTIDKFRRKNCPSCRLRKCYEAGMTLGARKL	-0.816 ± 0.072
QKTCLICGDEASGCHYGALTCGSCKVTFKRAAEGKQKYLCASRNDCTIDKFRRKNCPSCRLRKCYEAGMTLGARKL	-0.91 ± 0.07
QKTCLICGDEASGCHYGALTCGSCKVGFKRAAEGKQKYLCASRNDCTIDKFRRKNCPSCRLRKCYEAGMTLGARKL	-0.884 ± 0.065
QKTCLICGDEASGCHYGALTCGSCKVRFKRAAEGKQKYLCASRNDCTIDKFRRKNCPSCRLRKCYEAGMTLGARKL	-0.977 ± 0.067
QKTCLICGDEASGCHYGALTCGSCKVIFKRAAEGKQKYLCASRNDCTIDKFRRKNCPSCRLRKCYEAGMTLGARKL	-0.548 ± 0.12

Variant	abundance fitness
QKTCLICGDEASGCHYGALTCGSCKVAFKRAAEGKQKYLCASRNDCTIDKFRRKNCPSCRLRKCYEAGMTLGARKL	-0.729 ± 0.052
QKTCLICGDEASGCHYGALTCGSCKVYFKRAAEGKQKYLCASRNDCTIDKFRRKNCPSCRLRKCYEAGMTLGARKL	-0.598 ± 0.068
QKTCLICGDEASGCHYGALTCGSCKVWFKRAAEGKQKYLCASRNDCTIDKFRRKNCPSCRLRKCYEAGMTLGARKL	-0.387 ± 0.046
QKTCLICGDEASGCHYGALTCGSCKVCFKRAAEGKQKYLCASRNDCTIDKFRRKNCPSCRLRKCYEAGMTLGARKL	-0.833 ± 0.092
QKTCLICGDEASGCHYGALTCGSCKVMFKRAAEGKQKYLCASRNDCTIDKFRRKNCPSCRLRKCYEAGMTLGARKL	-1.01 ± 0.14
QKTCLICGDEASGCHYGALTCGSCKVQFKRAAEGKQKYLCASRNDCTIDKFRRKNCPSCRLRKCYEAGMTLGARKL	-0.839 ± 0.093
QKTCLICGDEASGCHYGALTCGSCKVEFKRAAEGKQKYLCASRNDCTIDKFRRKNCPSCRLRKCYEAGMTLGARKL	-0.73 ± 0.07
QKTCLICGDEASGCHYGALTCGSCKVSFKRAAEGKQKYLCASRNDCTIDKFRRKNCPSCRLRKCYEAGMTLGARKL	-0.983 ± 0.071
QKTCLICGDEASGCHYGALTCGSCKVDFKRAAEGKQKYLCASRNDCTIDKFRRKNCPSCRLRKCYEAGMTLGARKL	-0.519 ± 0.085
QKTCLICGDEASGCHYGALTCGSCKVPFKRAAEGKQKYLCASRNDCTIDKFRRKNCPSCRLRKCYEAGMTLGARKL	-0.655 ± 0.067
QKTCLICGDEASGCHYGALTCGSCKVHFKRAAEGKQKYLCASRNDCTIDKFRRKNCPSCRLRKCYEAGMTLGARKL	-0.805 ± 0.15
QKTCLICGDEASGCHYGALTCGSCKVFFDRAAEGKQKYLCASRNDCTIDKFRRKNCPSCRLRKCYEAGMTLGARKL	-0.258 ± 0.2
QKTCLICGDEASGCHYGALTCGSCKVFFERAAEGKQKYLCASRNDCTIDKFRRKNCPSCRLRKCYEAGMTLGARKL	0.202 ± 0.11
QKTCLICGDEASGCHYGALTCGSCKVFFCRAAEGKQKYLCASRNDCTIDKFRRKNCPSCRLRKCYEAGMTLGARKL	-0.49 ± 0.28
QKTCLICGDEASGCHYGALTCGSCKVFFFRAAEGKQKYLCASRNDCTIDKFRRKNCPSCRLRKCYEAGMTLGARKL	0.019 ± 0.24
QKTCLICGDEASGCHYGALTCGSCKVFFIRAAEGKQKYLCASRNDCTIDKFRRKNCPSCRLRKCYEAGMTLGARKL	-0.353 ± 0.099
QKTCLICGDEASGCHYGALTCGSCKVFFHRAAEGKQKYLCASRNDCTIDKFRRKNCPSCRLRKCYEAGMTLGARKL	-0.024 ± 0.1
QKTCLICGDEASGCHYGALTCGSCKVFFGRAAEGKQKYLCASRNDCTIDKFRRKNCPSCRLRKCYEAGMTLGARKL	-0.039 ± 0.068
QKTCLICGDEASGCHYGALTCGSLKVFFKRAAEGKQKYLCASRNDCTIDKFRRKNCPSCRLRKCYEAGMTLGARKL	-0.898 ± 0.046
QKTCLICGDEASGCHYGALTCGSTKVFFKRAAEGKQKYLCASRNDCTIDKFRRKNCPSCRLRKCYEAGMTLGARKL	-0.902 ± 0.06
QKTCLICGDEASGCHYGALTCGSNKVFFKRAAEGKQKYLCASRNDCTIDKFRRKNCPSCRLRKCYEAGMTLGARKL	-0.904 ± 0.094
QKTCLICGDEASGCHYGALTCGSWKVFFKRAAEGKQKYLCASRNDCTIDKFRRKNCPSCRLRKCYEAGMTLGARKL	-0.903 ± 0.059
QKTCLICGDEASGCHYGALTCGSGKVFFKRAAEGKQKYLCASRNDCTIDKFRRKNCPSCRLRKCYEAGMTLGARKL	-0.907 ± 0.04
QKTCLICGDEASGCHYGALTCGSIKVFFKRAAEGKQKYLCASRNDCTIDKFRRKNCPSCRLRKCYEAGMTLGARKL	-0.904 ± 0.076

Variant	abundance fitness
QKTCLICGDEASGCHYGALTCGSQKVFFKRAAEGKQKYLCASRNDCTIDKFRRKNCPSCRLRKCYEAGMTLGARKL	-0.932 ± 0.086
QKTCLICGDEASGCHYGALTCGSYKVFFKRAAEGKQKYLCASRNDCTIDKFRRKNCPSCRLRKCYEAGMTLGARKL	-1.08 ± 0.15
QKTCLICGDEASGCHYGALTCGSSKVFFKRAAEGKQKYLCASRNDCTIDKFRRKNCPSCRLRKCYEAGMTLGARKL	-1.1 ± 0.072
QKTCLICGDEASGCHYGALTCGSKKVFFKRAAEGKQKYLCASRNDCTIDKFRRKNCPSCRLRKCYEAGMTLGARKL	-0.957 ± 0.079
QKTCLICGDEASGCHYGALTCGSPKVFFKRAAEGKQKYLCASRNDCTIDKFRRKNCPSCRLRKCYEAGMTLGARKL	-0.853 ± 0.069
QKTCLICGDEASGCHYGALTCGSVKVFFKRAAEGKQKYLCASRNDCTIDKFRRKNCPSCRLRKCYEAGMTLGARKL	-0.907 ± 0.048
QKTCLICGDEASGCHYGALTCGSHKVFFKRAAEGKQKYLCASRNDCTIDKFRRKNCPSCRLRKCYEAGMTLGARKL	-0.891 ± 0.095
QKTCLICGDEASGCHYGALTCGSMKVFFKRAAEGKQKYLCASRNDCTIDKFRRKNCPSCRLRKCYEAGMTLGARKL	-0.964 ± 0.075
QKTCLICGDEASGCHYGALTCGSCVVFFKRAAEGKQKYLCASRNDCTIDKFRRKNCPSCRLRKCYEAGMTLGARKL	-0.043 ± 0.023
QKTCLICGDEASGCHYGALTCGSCEVFFKRAAEGKQKYLCASRNDCTIDKFRRKNCPSCRLRKCYEAGMTLGARKL	0.044 ± 0.026
QKTCLICGDEASGCHYGALTCGSCMVFFKRAAEGKQKYLCASRNDCTIDKFRRKNCPSCRLRKCYEAGMTLGARKL	0.013 ± 0.027
QKTCLICGDEASGCHYGALTCGSCHVFFKRAAEGKQKYLCASRNDCTIDKFRRKNCPSCRLRKCYEAGMTLGARKL	-0.011 ± 0.035
QKTCLICGDEASGCHYGALTCGSCGVFFKRAAEGKQKYLCASRNDCTIDKFRRKNCPSCRLRKCYEAGMTLGARKL	0.013 ± 0.021
QKTCLICGDEASGCHYGALTCGSCCVFFKRAAEGKQKYLCASRNDCTIDKFRRKNCPSCRLRKCYEAGMTLGARKL	0.012 ± 0.027
QKTCLICGDEASGCHYGALTCGSCRVFFKRAAEGKQKYLCASRNDCTIDKFRRKNCPSCRLRKCYEAGMTLGARKL	-0.066 ± 0.021
QKTCLICGDEASGCHYGALTCGSCWVFFKRAAEGKQKYLCASRNDCTIDKFRRKNCPSCRLRKCYEAGMTLGARKL	-0.077 ± 0.025
QKTCLICGDEASGCHYGALTCGSCTVFFKRAAEGKQKYLCASRNDCTIDKFRRKNCPSCRLRKCYEAGMTLGARKL	0.005 ± 0.025
QKTCLICGDEASGCHYGALTCGSCAVFFKRAAEGKQKYLCASRNDCTIDKFRRKNCPSCRLRKCYEAGMTLGARKL	0.026 ± 0.022
QKTCLICGDEASGCHYGALTCGSCFVFFKRAAEGKQKYLCASRNDCTIDKFRRKNCPSCRLRKCYEAGMTLGARKL	-0.062 ± 0.029
QKTCLICGDEASGCHYGALTCGSCLVFFKRAAEGKQKYLCASRNDCTIDKFRRKNCPSCRLRKCYEAGMTLGARKL	-0.099 ± 0.021
QKTCLICGDEASGCHYGALTCGSCSVFFKRAAEGKQKYLCASRNDCTIDKFRRKNCPSCRLRKCYEAGMTLGARKL	0.03 ± 0.022
QKTCLICGDEASGCHYGALTCGSCIVFFKRAAEGKQKYLCASRNDCTIDKFRRKNCPSCRLRKCYEAGMTLGARKL	-0.24 ± 0.033
QKTCLICGDEASGCHYGALTCGSCNVFFKRAAEGKQKYLCASRNDCTIDKFRRKNCPSCRLRKCYEAGMTLGARKL	0.014 ± 0.032
QKTCLICGDEASGCHYGALTCGSCDVFFKRAAEGKQKYLCASRNDCTIDKFRRKNCPSCRLRKCYEAGMTLGARKL	-0.025 ± 0.03
